Experimental data from article PMC4045628 (CellBio, 2014).

Assays:
[1] = molecular target: HA-tagged kinase-inactive PKC iota (UniProt P41743); assay: co-IP
[2] = molecular target: T1, HA-tagged wild-type PKC iota (UniProt P41743 1-596); assay: co-IP
T1 sequence (looked up): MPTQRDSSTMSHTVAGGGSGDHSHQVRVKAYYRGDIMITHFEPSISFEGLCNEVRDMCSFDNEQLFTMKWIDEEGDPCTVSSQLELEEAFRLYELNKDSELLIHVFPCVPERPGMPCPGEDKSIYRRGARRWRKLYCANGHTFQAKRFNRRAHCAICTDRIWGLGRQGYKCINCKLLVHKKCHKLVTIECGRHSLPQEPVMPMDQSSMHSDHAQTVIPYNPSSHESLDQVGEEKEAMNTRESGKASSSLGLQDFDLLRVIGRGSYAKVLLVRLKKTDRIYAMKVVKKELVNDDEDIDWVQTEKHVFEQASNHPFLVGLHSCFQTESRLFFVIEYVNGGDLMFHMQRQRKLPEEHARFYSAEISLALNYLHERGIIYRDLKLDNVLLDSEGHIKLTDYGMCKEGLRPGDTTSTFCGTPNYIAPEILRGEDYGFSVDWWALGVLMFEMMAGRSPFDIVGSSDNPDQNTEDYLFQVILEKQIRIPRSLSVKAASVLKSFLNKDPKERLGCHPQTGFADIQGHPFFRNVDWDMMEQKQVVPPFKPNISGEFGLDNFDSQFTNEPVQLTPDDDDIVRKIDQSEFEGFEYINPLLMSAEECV

fold co-immunoprecipitated relative to PAR-3 [1]: 10 fold
fold co-immunoprecipitated relative to PAR-3 [2]: ~10 fold
B1: PAR-6B (natural protein, rat (endogenous in PC12), UniProt D4A2F2 1-372, looked up)
chain: MNRGHRHGVSSGCLGTMEVKSKFGAEFRRFSLERSKPGKFEEFYGLLQHVHKIPNVDVLVGYADIHGDLLPINNDDNYHKAVSTANPLLRVFIQKKEEADYSAFGTDTLIRKKNVLSNVLRPDNHRKKPHIVISMPQDFRPVSSIIDVDILPETHRRVRLYKYGTEKPLGFYIRDGSSVRVTPHGLEKVPGIFISRLVPGGLAQSTGLLAVNDEVLEVNGIEVSGKSLDQVTDMMIANSRNLIITVRPANQRNNVVRNSRTSGSSGQSTDNSLLGYPQQAGASLEPEDQDSDEDDIIIEGSGEPQQIPKATPEALSLESLTQIELSFESGQNGFSPLQDTSLVAVPSSLDTESESRAPDQKLLEEDGTIITL
